The record followed here is US20250129169A1 (Stanford University, published 2025).

One assay addresses T1, human IFNAR2 ECD (human, UniProt P48551 27-243).
T1 construct: extracellular domain; Immobilized for SPR under the same conditions as for the IL-2 specific VHHs
T1 sequence (looked up): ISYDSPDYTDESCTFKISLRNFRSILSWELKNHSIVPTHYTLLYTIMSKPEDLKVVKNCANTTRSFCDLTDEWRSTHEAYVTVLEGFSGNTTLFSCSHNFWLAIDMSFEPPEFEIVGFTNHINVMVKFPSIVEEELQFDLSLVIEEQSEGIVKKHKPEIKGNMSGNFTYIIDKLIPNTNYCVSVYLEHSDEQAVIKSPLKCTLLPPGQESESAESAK
Nature of the assay: SPR; human IFNAR2 ECD immobilized, VHH as analyte; binding constants from kinetic fits. As for the experimental part:
FIGS. 8A-8D depict signaling kinetics and gene expression driven by Type I Interferon surrogate ligands. (A) SPR sensorgrams displaying dose-dependent binding of IFNAR2 VHHs to immobilized human IFNAR2 ECD. SPR experiments were performed using the same conditions as for IL-2 specific VHHs. Binding constants were determined from kinetic fitting and summarized in (B). (C) qRT-PCR analysis of mRNA level of indicated genes in human primary bronchial/tracheal epithelial cells treated with 10 nM surrogate ligands or IFNω for 8 hr. (D) qRT-PCR analysis of mRNA level of indicated genes in PBMCs treated with 10 nM surrogate ligands or IFNω for 8 hr.

In a further assay the target is T2, human IL-10Rβ ECD (human, UniProt Q08334 20-220).
T2 construct: extracellular domain; Immobilized for SPR under the same conditions as for the IL-2 specific VHHs
T2 sequence (looked up): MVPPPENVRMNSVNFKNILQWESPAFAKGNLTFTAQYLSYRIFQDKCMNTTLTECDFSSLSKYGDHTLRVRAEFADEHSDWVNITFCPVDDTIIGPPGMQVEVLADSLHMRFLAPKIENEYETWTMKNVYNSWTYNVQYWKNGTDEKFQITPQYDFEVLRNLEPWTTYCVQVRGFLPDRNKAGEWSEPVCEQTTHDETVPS
Nature of the assay: SPR, kinetic fit, immobilized human IL-10Rβ ECD. The protocol: (A) SPR sensorgrams displaying dose-dependent binding of IL-10Rβ VHHs to immobilized human IL-10Rβ ECD. SPR experiments were performed using the same conditions as for IL-2 specific VHHs. Binding constants were determined from kinetic fitting and summarized in (B).

Assay [1] has as its target T3, Human IL-2Rβ ECD (human, UniProt P14784 27-240, biotinylated (site not stated)).
T3 construct: extracellular domain; Biotinylated and held on a streptavidin chip for SPR; also called biotinylated human IL-2Rβ ECD
T3 sequence (looked up): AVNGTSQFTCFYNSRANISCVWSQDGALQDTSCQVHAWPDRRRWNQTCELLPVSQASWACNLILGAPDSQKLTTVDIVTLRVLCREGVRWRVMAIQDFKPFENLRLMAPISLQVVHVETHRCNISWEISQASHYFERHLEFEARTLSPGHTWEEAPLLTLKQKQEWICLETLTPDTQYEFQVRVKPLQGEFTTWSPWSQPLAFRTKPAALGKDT
Nature of the assay: SPR, steady-state binding affinity (drawn table). As for the experimental part: (§1) FIGS. 2A-2H show data on SPR validation of IL-2Rβ- and γc-VHHs and agonist screening in YT-1 cells. (A) Biotinylated human IL-2Rβ ECD was immobilized on a streptavidin (SA) sensor chip, and varying concentrations of IL-2Rβ VHH were applied to determine binding parameters using SPR. Sensorgrams are shown on the left, and steady state binding is plotted on the right. Binding affinities (KD) were determined by fitting to steady state response values. (B) Biotinylated human γC ECD was immobilized on a SA chip, and varying concentrations of γc VHH were flowed over the chip to determine binding. […] (C) Steady-state binding affinities between VHH/scFv and IL-2R, as determined by SPR. Values for scFv affinities are derived from patent US20160367664A1 (Wang et al., 2016). (D) Table of pSTAT5 Eₘₐₓ values for the indicated VHH pairings. (E) Tuning IL-2 activity via generation of acid-base VHH zipper pairings. (F) Tuning IL-2 activity via generation of 2:1 β:γc or γc:β stoichiometries. VHH binding modules are linked together in a tripartite (β-γc-β or γc-β-γc) manner. Graph axes are represented as in (E). (G) Dose-response relationship of pSTAT5 geometric mean flurorescence intensities (gMFI) of selected agonists. (H) Corresponding histograms showing STAT5 activity in YT-1 cells treated with human IL-2 vs. IL-2 surrogate agonists at saturating concentration.

Assay [2] has as its target T3, Human IL-2Rβ ECD. In words: SPR; biotinylated human IL-2Rβ ECD on streptavidin chip, VHH as analyte; KD from fit to steady-state responses [Cont.]. The protocol:
as §1

Assay [3] addresses IL-2Rβ/γc receptor heterodimer on cells (human) (UniProt P14784). In words: cell-based or functional assay.

Chain of IL-2Rβ/γc receptor heterodimer on cells (human) (P31785 23-369, one chain of several): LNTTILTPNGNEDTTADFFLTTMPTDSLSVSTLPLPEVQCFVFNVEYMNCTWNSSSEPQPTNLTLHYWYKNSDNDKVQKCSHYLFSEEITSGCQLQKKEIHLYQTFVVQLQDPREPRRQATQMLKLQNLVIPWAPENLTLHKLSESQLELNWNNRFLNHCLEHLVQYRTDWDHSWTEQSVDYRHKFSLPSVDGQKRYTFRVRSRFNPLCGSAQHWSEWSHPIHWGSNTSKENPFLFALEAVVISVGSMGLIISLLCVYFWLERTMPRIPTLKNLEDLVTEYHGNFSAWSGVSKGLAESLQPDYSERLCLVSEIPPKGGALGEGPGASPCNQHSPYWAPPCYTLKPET

B1: IFNAR2-VHH1 (VHH)
VHH: QVQLQESGGGSVQPGGSLRLSCAASGFTFSNYIMSWVRQAPGKGLEWVSAISGGGNTYYTDSVKGRFTISRDNAKNTLYLQLNSLKTEDTAMYYCAQNWWVAGRSPNPPGQGTQVTVSS
notes: Member of the group m12 (IFNAR2 VHHs); also called VHH1 (IFNAR2 VHH)
Molecule B1 showed a Kd in the assay with human IFNAR2 ECD of 0.31 nM.

B2: IFNAR2-VHH5 (VHH)
VHH: QVQLQESGGGLVQPGGSLTLSCAASGFTFRNHIMSWVRQAPGKGLEWVSAISSGGGNTYYADSVKGRFTISRDNAKSTLYLQLNSLKTEDTAMYYCTKDWARPPYSDFLAPQAQGTQVTVSS
notes: Member of the group m12 (IFNAR2 VHHs); also called VHH5 (IFNAR2 VHH)
In turn, B2 displayed a Kd in the assay with human IFNAR2 ECD of 0.23 nM.

B3: IFNAR2-VHH3 (VHH)
VHH: QVQLQESGGGLVQPGGSLRLSCAASEFTFSEYSMKWVRQPPGKGLEWVSTISPSGGTTRYAESVKGRFTISRDNAKNTLYLQLNSLKTEDTAMYYCSVADWSVTQRRGQGTQVTVSS
notes: Member of the group m12 (IFNAR2 VHHs); also called VHH3 (IFNAR2 VHH)
On to B3, for which the affinity in the assay with human IFNAR2 ECD, expressed as Kd, was 0.21 nM.

B4: IFNAR2-VHH8 (VHH)
VHH: QVQLQESGGGSVQAGGSLRLSCAASGFYGTYSMGWFRQAPGKEREGVAHIESDGSTRYADSMKGRFTVSKDNAKKILYLQMNSLKPEDTAVYYCAADPRPYFRTWYERARYGGQGTQVTVSS
notes: Member of the group m12 (IFNAR2 VHHs); also called VHH8 (IFNAR2 VHH)
As to B4, the Kd with human IFNAR2 ECD was 0.54 nM.

B5: 10Rβ-VHH3 (VHH)
VHH: QVQLQESGGGSVQVGGSLRLSCAASGYTYSNYCMGWFRQAPGKEREGVATIDGDGSTRYADSVKGRFTISKDNAKNTLYLQMHSLKPEDTAMYYCAADFALCDPTVVAHTDFGYWGQGTQVTVSS
notes: member of the group m13; also called VHH3 (IL-10Rβ VHH)
As to B5, the Kd with human IL-10Rβ ECD was found to be 2.5 nM.

B6: 2Rβ-VHH1 (VHH)
VHH: QVQLQESGGGSVQAGGSLRLSCVTSGYTYSSANMAWFRQAPGKEREGVAIITPSGRATTYADSVKGRFTISRDNAANTLYLQMNSLKPEDTAMYYCAADTPPYSGLWYAERTYNYWGQGTQVTVSS
notes: also called IL-2Rβ-specific VHH clone 1
With B6, the dissociation constant Kd is 11 nM in the assay with Human IL-2Rβ ECD [1] and 10.9 nM in the assay with Human IL-2Rβ ECD [2].

B7: 2Rβ-VHH6 (VHH)
VHH: QVQLQESGGGSVQAGGSLRLSCAASSYTISSVCMGWFRQAPGKEREGVAGIAPDGSTGYGDSVKGRFTISKDNAKNTLYLQMNSLKPEDTAMYYCAAASPGRCFLPRTALEPALYYNWGQGTQVTVSS
notes: also called IL-2Rβ-VHH6
For the molecule B7, the Kd in the assay with Human IL-2Rβ ECD [1] and in the assay with Human IL-2Rβ ECD [2] was 25 nM each time.

B8: 10Rβ-VHH4 (VHH)
VHH: QVQLQESGGGSVQAGGSLRLSCAASGYTYSSYCMGWFRQASGKEREGVATIDSDGSTRYADSVKGRFTISKDNAKNTLYLQMNSLKPEDTAMYYCAADLADCAPSIYSDYDVAHWGQGTQVTVSS
notes: member of the group m13; also called VHH4 (IL-10Rβ VHH)
Consider B8, for which binding in the assay with human IL-10Rβ ECD was put at a Kd of 2.2 nM.

B9: IFNAR2-VHH2 (VHH)
VHH: QVQLQESGGGLVQPGGSLRLSCAASGFTFSDYIMTWVRQAPGKGLEWVSSINNGGRSTYYADSVKGRFTISRDNAKNTLYLQLNSLKIEDTAMYYCARDVTCWGARTGCRVSGGTQVTVSS
notes: Member of the group m12 (IFNAR2 VHHs); also called VHH2 (IFNAR2 VHH)
Take B9: the Kd with human IFNAR2 ECD amounted to 0.78 nM.

B10: 2Rβ-VHH4 (VHH)
VHH: QVQLQESGGGSVQAGGSLRLSCAASGSTSCSSVMRWYRQAPGKEREFVSSINSDRRTVYADSVKGRFTISQDNAKSTLYLQMNSLKAEDTATYYCQRELYGDSWCQGNYWGQGTQVTVSS
As to B10, the Kd with Human IL-2Rβ ECD [1] and in the assay with Human IL-2Rβ ECD [2] was 123 nM each time.

B11: MY193-R (bispecific antibody, not shown: small tags and cut ends)
chain: QVQLQESGPGLVKPSETLSLTCTVSGGSISSSSYYWGWIRQPPGKGLEWIGSIYYSGSTYYNPSLKSRVTISVDTSKNQFSLKLSSVTAADTAVYYCAGDILTGYALDYWGQGTLVTVSSGGGGSGGGGSGGGGSSYELTQPPSMSVSPGQTARITCSGDALPKQFAFWYQQKPGQAPVLVIYKDTERPSGIPERFSGSSSGTTVTLTITGVQAEDEADYYCQSPDSSGTVEVFGGGTKLTVLGGGGTSASQVQLQESGGGSVQAGGSLRLSCTASGFTFDDEDMGWYRQAPGNECELVSSIGSLGRRYYADSVKDRFAISQDNAKNTVYLQMNSLKPEDTAVYYCAATKGGSWLDSILASCQGAFGYWGQGTQVTVSS
In assay [3], B11 registered a pSTAT1/3 activity in NK cells, relative to hIL-2 of 3%; a pSTAT1 or pSTAT3 activity in CD8+ T cells, relative to hIL-2 of 25%; a pSTAT5 activity in CD8+ T cells, relative to hIL-2 of 90%; a pSTAT5 activity in NK cells, relative to hIL-2 of 45%.

B12: 2Rβ-VHH3 (VHH)
VHH: QVQLQESGGGSVQAGGSLRLSCTASGFTFDDEDMGWYRQAPGNECELVSSIGSLGRRYYADSVKDRFAISQDNAKNTVYLQMNSLKPEDTAVYYCAATKGGSWLDSILASCQGAFGYWGQGTQVTVSS
On to B12, for which the equilibrium dissociation constant (Kd) with Human IL-2Rβ ECD [1] is 20 nM; with Human IL-2Rβ ECD [2], 20.2 nM.

B13: 10Rβ-VHH2 (VHH)
VHH: QVQLQESGGGSVQTGGSLRLSCAASQVNMNSVGWFRQAPGKAREGVATISPSGGATYYTDSVKGRFTISRDNAKNTVYLQMNSLNAEDTAMYYCAADGGRDWWLLRPQTFSYWGQGTQVTVSS
notes: member of the group m13; also called VHH2 (IL-10Rβ VHH)
As to B13, in the assay with human IL-10Rβ ECD, the Kd was 2.2 nM.

B14: IFNAR2-VHH10 (VHH)
VHH: QVQLQESGGGLVQPGGSLRLSCAASGFTFSNHIMSWVRQAPGKGLEWVSAINSGGGSTYYRDSVKGRFTISRDNAKNTLYLQLNSLKTEDTAMYYCAKDWWRYGSDKPPGQGTQVTVSS
notes: Member of the group m12 (IFNAR2 VHHs); also called VHH10 (IFNAR2 VHH)
B14 displayed a Kd with human IFNAR2 ECD of 0.33 nM.

B15: 10Rβ-VHH5 (VHH)
VHH: QVQLQESGGGSVQAGGSLRLSCAASGYTYSSYCMGWFRQAPGKEREGVAAIDSDGSTSYADSVKGRFTISKDNAKNTLYLQMNSLKPEDTAMYYCAAEPWCTSQGRGRESAEFGYWGQGTQVTVSS
notes: member of the group m13; also called VHH5 (IL-10Rβ VHH)
With B15, in the assay with human IL-10Rβ ECD, the equilibrium dissociation constant (Kd) came out at 1.7 nM.

B16: MY173-F (bispecific antibody, not shown: small tags and cut ends)
chain: QVQLQESGGGSVQAGGSLRLSCAASSYTISSVCMGWFRQAPGKEREGVAGIAPDGSTGYGDSVKGRFTISKDNAKNTLYLQMNSLKPEDTAMYYCAAASPGRCFLPRTALEPALYYNWGQGTQVTVSSSFQVQLQESGGGSVQAGGSLRLSCAASGYTYRDYYMGWFRQAPGREREGVASIYTRGSREGSTRYSSSVEGRFTITLDTAKNTLYLQMNSLKPEDTAMYYCAADDRTWLPRVQLGGPRENEYNYWGQGTQVTVSS
Regarding B16, in assay [3], the pS6 activity in CD8+ T and NK cells, relative to IL-2 worked out at 50%; the pSTAT5 activity in CD8+ T and NK cells, relative to IL-2 lay within 70 to 100%.

B17: 10Rβ-VHH1 (VHH)
VHH: QVQLQESGGGSVQAGGSLRLSCAARYTYSTYCMGWFRQAPGKEREGVAAIDSDGSTSYADSVKGRFTISKDNAKNTLYLQMNSLKPEDTAMYYCASDADCDLGGSWSTRGQGTQVTVSS
notes: member of the group m13; also called VHH1 (IL-10Rβ VHH)
Turning to B17, the Kd in the assay with human IL-10Rβ ECD was found to be 1.6 nM.
